From the supplement of paper PMC5998384

Tests used:
HeLa Kyoto [1] = assay: solubility in G1/S (NP-40 vs SDS abundance) (log2 ratio); higher = more soluble; settings: cell cycle stage: G1/S
HeLa Kyoto [2] = assay: solubility change mitosis vs G1/S (difference of NP-40 vs SDS log2 ratios) (log2 ratio difference); higher = more soluble in mitosis
HeLa Kyoto [3] = assay: melting temperature (median over replicates), in situ; higher = more thermally stable
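For melting temperature (median over replicates), in situ in this document: HeLa Kyoto cells synchronized by double thymidine or nocodazole block, proteins quantified by TMT10plex mass spectrometry, three independent biological replicates.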
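For solubility change mitosis vs G1/S (difference of NP-40 vs SDS log2 ratios) in this document: synchronized HeLa Kyoto cells (double thymidine block for G1/S, nocodazole release for mitosis), protein amounts in NP-40 versus SDS lysates quantified by mass spectrometry, three biological replicates.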
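For solubility in G1/S (NP-40 vs SDS abundance) in this document: HeLa Kyoto cells arrested at G1/S by double thymidine block, proteins quantified by TMT10plex mass spectrometry in mild NP-40 versus SDS extracts, three biological replicates.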

Sequence | solubility in G1/S (log2) (HeLa Kyoto [1]) | solubility change mitosis (log2) (HeLa Kyoto [2]) | melting temperature (HeLa Kyoto [3]; cell cycle stage: G1/S) [°C] | melting temperature (HeLa Kyoto [3]; cell cycle stage: mitosis) [°C]
MNRLPDDYDPYAVEEPSDEEPALSSSEDEVDVLLHGTPDQKRKLIRECLTGESESSSEDEFEKEMEAELNSTMKTMEDKLSSLGTGSSSGNGKVATAPTRYYDDIYFDSDSEDEDRAVQVTKKKKKKQHKIPTNDELLYDPEKDNRDQAWVDAQRRGYHGLGPQRSRQQQPVPNSDAVLNCPACMTTLCLDCQRHESYKTQYRAMFVMNCSINKEEVLRYKASENRKKRRVHKKMRSNREDAAEKAETDVEEIYHPVMCTECSTEVAVYDKDEVFHFFNVLASHS [EAPP] | 0.159 | 0.14 | 50.3 | –
MNVALQELGAGSNMVEYKRATLRDEDAPETPVEGGASPDAMEVGKGASPFSPGPSPGMTPGTPRSSGLFWRVTCPHLRSISGLCSRTMVGFQKGTRQLLGSRTQLELVLAGASLLLAALLLGCLVALGVQYHRDPSHSTCLTEACIRVAGKILESLDRGVSPCEDFYQFSCGGWIRRNPLPDGRSRWNTFNSLWDQNQAILKHLLENTTFNSSSEAEQKTQRFYLSCLQVERIEELGAQPLRDLIEKIGGWNITGPWDQDNFMEVLKAVAGTYRATPFFTVYISADSKSSNSNVIQVDQSGLFLPSRDYYLNRTANEKVLTAYLDYMEELGMLLGGRPTSTREQMQQVLELEIQLANITVPQDQRRDEEKIYHKMSISELQALAPSMDWLEFLSFLLSPLELSDSEPVVVYGMDYLQQVSELINRTEPSILNNYLIWNLVQKTTSSLDRRFESAQEKLLETLYGTKKSCVPRWQTCISNTDDALGFALGSLFVKATFDRQSKEIAEGMISEIRTAFEEALGQLVWMDEKTRQAAKEKADAIYDMIGFPDFILEPKELDDVYDGYEISEDSFFQNMLNLYNFSAKVMADQLRKPPSRDQWSMTPQTVNAYYLPTKNEIVFPAGILQAPFYARNHPKALNFGGIGVVMGHELTHAFDDQGREYDKEGNLRPWWQNESLAAFRNHTACMEEQYNQYQVNGERLNGRQTLGENIADNGGLKAAYNAYKAWLRKHGEEQQLPAVGLTNHQLFFVGFAQVWCSVRTPESSHEGLVTDPHSPARFRVLGTLSNSRDFLRHFGCPVGSPMNPGQLCEVW [ECE2] | 0.0962 | -0.189 | – | 50.7
MPNFCAAPNCTRKSTQSDLAFFRFPRDPARCQKWVENCRRADLEDKTPDQLNKHYRLCAKHFETSMICRTSPYRTVLRDNAIPTIFDLTSHLNNPHSRHRKRIKELSEDEIRTLKQKKIDETSEQEQKHKETNNSNAQNPSEEEGEGQDEDILPLTLEEKENKEYLKSLFEILILMGKQNIPLDGHEADEIPEGLFTPDNFQALLECRINSGEEVLRKRFETTAVNTLFCSKTQQRQMLEICESCIREETLREVRDSHFFSIITDDVVDIAGEEHLPVLVRFVDESHNLREEFIGFLPYEADAEILAVKFHTMITEKWGLNMEYCRGQAYIVSSGFSSKMKVVASRLLEKYPQAIYTLCSSCALNMWLAKSVPVMGVSVALGTIEEVCSFFHRSPQLLLELDNVISVLFQNSKERGKELKEICHSQWTGRHDAFEILVELLQALVLCLDGINSDTNIRWNNYIAGRAFVLCSAVSDFDFIVTIVVLKNVLSFTRAFGKNLQGQTSDVFFAAGSLTAVLHSLNEVMENIEVYHEFWFEEATNLATKLDIQMKLPGKFRRAHQGNLESQLTSESYYKETLSVPTVEHIIQELKDIFSEQHLKALKCLSLVPSVMGQLKFNTSEEHHADMYRSDLPNPDTLSAELHCWRIKWKHRGKDIELPSTIYEALHLPDIKFFPNVYALLKVLCILPVMKVENERYENGRKRLKAYLRNTLTDQRSSNLALLNINFDIKHDLDLMVDTYIKLYTSKSELPTDNSETVENT [PRKRIR] | 0.246 | -0.0658 | 51.3 | 50.9
MPPERRRRMKLDRRTGAKPKRKPGMRPDWKAGAGPGGPPQKPAPSSQRKPPARPSAAAAAIAVAAAEEERRLRQRNRLRLEEDKPAVERCLEELVFGDVENDEDALLRRLRGPRVQEHEDSGDSEVENEAKGNFPPQKKPVWVDEEDEDEEMVDMMNNRFRKDMMKNASESKLSKDNLKKRLKEEFQHAMGGVPAWAETTKRKTSSDDESEEDEDDLLQRTGNFISTSTSLPRGILKMKNCQHANAERPTVARISSVQFHPGAQIVMVAGLDNAVSLFQVDGKTNPKIQSIYLERFPIFKACFSANGEEVLATSTHSKVLYVYDMLAGKLIPVHQVRGLKEKIVRSFEVSPDGSFLLINGIAGYLHLLAMKTKELIGSMKINGRVAASTFSSDSKKVYASSGDGEVYVWDVNSRKCLNRFVDEGSLYGLSIATSRNGQYVACGSNCGVVNIYNQDSCLQETNPKPIKAIMNLVTGVTSLTFNPTTEILAIASEKMKEAVRLVHLPSCTVFSNFPVIKNKNISHVHTMDFSPRSGYFALGNEKGKALMYRLHHYSDF [UTP18] | -2.03 | 0.81 | – | 52.7
MPVTHRKSDASDMNSDTSPSCRLRAFSRGGSLESRSSSSRSRSFTLDDESLKYLTHEEKDVLLFFEETIDSLDEDFEEPVLCDGGVCCLCSPSLEESTSSPSEPEDVIDLVQPAPGAGEAEGLPEGTQAAGPAPAGKEHRKQDAETPPPPDPPAPETLLAPPPLPSTPDPPRRELRAPSPPVEHPRLLRSVPTPLVMAQKISERMAGNEALSPTSPFREGRPGEWRTPAARGPRSGDPGPGPSHPAQPKAPRFPSNIIVTNGAAREPRRTLSRAAVSVQERRAQVLATIHGHAGAFPAAGDAGEGAPGGGSSPERVARGRGLPGPAESLRAGGQAPRGPALANGFPSAHEALKSAPSSFAPAGKSLCFRPGPALPSTRARQSFPGPRQPNGAQDWRRADSLPRPQGITVQFAGRGSSEEARREALRKLGLLRESS [PROSER2] | 0.405 | -0.0862 | 48.6 | 51.3
MQNEPLTPGYHGFPARDSQGNQEPTTTPDAMVQPFTTIPFPPPPQNGIPTEYGVPHTQDYAGQTGEHNLTLYGSTQAHGEQSSNSPSTQNGSLTTEGGAQTDGQQSQTQSSENSESKSTPKRLHVSNIPFRFRDPDLRQMFGQFGKILDVEIIFNERGSKGFGFVTFENSADADRAREKLHGTVVEGRKIEVNNATARVMTNKKMVTPYANGWKLSPVVGAVYGPELYAASSFQADVSLGNDAAVPLSGRGGINTYIPLISLPLVPGFPYPTAATTAAAFRGAHLRGRGRTVYGAVRAVPPTAIPAYPGVVYQDGFYGADLYGGYAAYRYAQPATATAATAAAAAAAAYSDGYGRVYTADPYHALAPAASYGVGAVASLYRGGYSRFAPY [RBFOX2] | 0.223 | 0.0624 | 49.8 | –
MRDYDEVTAFLGEWGPFQRLIFFLLSASIIPNGFTGLSSVFLIATPEHRCRVPDAANLSSAWRNHTVPLRLRDGREVPHSCRRYRLATIANFSALGLEPGRDVDLGQLEQESCLDGWEFSQDVYLSTIVTEWNLVCEDDWKAPLTISLFFVGVLLGSFISGQLSDRFGRKNVLFVTMGMQTGFSFLQIFSKNFEMFVVLFVLVGMGQISNYVAAFVLGTEILGKSVRIIFSTLGVCIFYAFGYMVLPLFAYFIRDWRMLLVALTMPGVLCVALWWFIPESPRWLISQGRFEEAEVIIRKAAKANGIVVPSTIFDPSELQDLSSKKQQSHNILDLLRTWNIRMVTIMSIMLWMTISVGYFGLSLDTPNLHGDIFVNCFLSAMVEVPAYVLAWLLLQYLPRRYSMATALFLGGSVLLFMQLVPPDLYYLATVLVMVGKFGVTAAFSMVYVYTAELYPTVVRNMGVGVSSTASRLGSILSPYFVYLGAYDRFLPYILMGSLTILTAILTLFLPESFGTPLPDTIDQMLRVKGMKHRKTPSHTRMLKDGQERPTILKSTAF [SLC22A5] | 0.228 | -0.137 | 59.7 | 56.9
MRESALERGPVPEAPAGGPVHAVTVVTLLEKLASMLETLRERQGGLARRQGGLAGSVRRIQSGLGALSRSHDTTSNTLAQLLAKAERVSSHANAAQERAVRRAAQVQRLEANHGLLVARGKLHVLLFKEEGEVPASAFQKAPEPLGPADQSELGPEQLEAEVGESSDEEPVESRAQRLRRTGLQKVQSLRRALSGRKGPAAPPPTPVKPPRLGPGRSAEAQPEAQPALEPTLEPEPPQDTEEDPGRPGAAEEALLQMESVA [PRKCDBP] | 0.305 | 0.338 | 53.9 | 52.8
MRKIDLCLSSEGSEVILATSSDEKHPPENIIDGNPETFWTTTGMFPQEFIICFHKHVRIERLVIQSYFVQTLKIEKSTSKEPVDFEQWIEKDLVHTEGQLQNEEIVAHDGSATYLRFIIVSAFDHFASVHSVSAEGTVVSNLSS [HSPB11] | 0.137 | -0.328 | 53.3 | 55.1
MRLRVRLLKRTWPLEVPETEPTLGHLRSHLRQSLLCTWGYSSNTRFTITLNYKDPLTGDEETLASYGIVSGDLICLILQDDIPAPNIPSSTDSEHSSLQNNEQPSLATSSNQTSMQDEQPSDSFQGQAAQSGVWNDDSMLGPSQNFEAESIQDNAHMAEGTGFYPSEPMLCSESVEGQVPHSLETLYQSADCSDANDALIVLIHLLMLESGYIPQGTEAKALSMPEKWKLSGVYKLQYMHPLCEGSSATLTCVPLGNLIVVNATLKINNEIRSVKRLQLLPESFICKEKLGENVANIYKDLQKLSRLFKDQLVYPLLAFTRQALNLPDVFGLVVLPLELKLRIFRLLDVRSVLSLSAVCRDLFTASNDPLLWRFLYLRDFRDNTVRVQDTDWKELYRKRHIQRKESPKGRFVMLLPSSTHTIPFYPNPLHPRPFPSSRLPPGIIGGEYDQRPTLPYVGDPISSLIPGPGETPSQFPPLRPRFDPVGPLPGPNPILPGRGGPNDRFPFRPSRGRPTDGRLSFM [FBXO7] | 0.02 | -0.126 | 48.1 | 49.7
MRPLLGLLLVFAGCTFALYLLSTRLPRGRRLGSTEEAGGRSLWFPSDLAELRELSEVLREYRKEHQAYVFLLFCGAYLYKQGFAIPGSSFLNVLAGALFGPWLGLLLCCVLTSVGATCCYLLSSIFGKQLVVSYFPDKVALLQRKVEENRNSLFFFLLFLRLFPMTPNWFLNLSAPILNIPIVQFFFSVLIGLIPYNFICVQTGSILSTLTSLDALFSWDTVFKLLAIAMVALIPGTLIKKFSQKHLQLNETSTANHIHSRKDT [TMEM41A] | 0.0255 | -0.205 | 55.1 | 55.5
MRRAAGMEDFSAEEEESWYDQQDLEQDLHLAAELGKTLLERNKELEGSLQQMYSTNEEQVQEIEYLTKQLDTLRHVNEQHAKVYEQLDLTARDLELTNHRLVLESKAAQQKIHGLTETIERLQAQVEELQAQVEQLRGLEQLRVLREKRERRRTIHTFPCLKELCTSPRCKDAFRLHSSSLELGPRPLEQENERLQTLVGALRSQVSQERQRKERAEREYTAVLQEYSELERQLCEMEACRLRVQELEAELLELQQMKQAKTYLLGPDDHLAEALLAPLTQAPEADDPQPGRGDDLGAQDGVSSPAASPGHVVRKSCSDTALNAIVAKDPASRHAGNLTLHANSVRKRGMSILREVDEQYHALLEKYEELLSKCRQHGAGVRHAGVQTSRPISRDSSWRDLRGGEEGQGEVKAGEKSLSQHVEAVDKRLEQSQPEYKALFKEIFSRIQKTKADINATKVKTHSSK [CDR2L] | 0.549 | -0.204 | 52.5 | –
MSATRAKKVKMATKSCPECDQQVPVACKSCPCGYIFISRKLLNAKHSEKSPPSTENKHEAKRRRTERVRREKINSTVNKDLENRKRSRSNSHSDHIRRGRGRPKSASAKKHEEEREKQEKEIDIYANLSDEKAFVFSVALAEINRKIINQRLIL [C16ORF87] | 0.019 | 0.198 | – | 50.6
